From PMC5794963, “Link between the causative genes of holoprosencephaly: Zic2 directly regulates Tgif1 expression” come the findings set out here.

Data set [1] deals with T1, F-HA-Zic2 (UniProt Q62520 1-530). Description: competition; against N1; shifted bands disappear completely; Footprinting: 20 mM Tris-HCl pH 8.0, 3 mM MgCl2, 5 mM CaCl2, 100 mM NaCl, 100 mM DTT, 0.1 mM EDTA, 50 ug/ml BSA, 25 C, 30 min; EMSA conditions as in earlier work. The settings on record: protein: recombinant; tags: N-terminal FLAG-HA; label: none.
T1 sequence (Q62520 whole entry): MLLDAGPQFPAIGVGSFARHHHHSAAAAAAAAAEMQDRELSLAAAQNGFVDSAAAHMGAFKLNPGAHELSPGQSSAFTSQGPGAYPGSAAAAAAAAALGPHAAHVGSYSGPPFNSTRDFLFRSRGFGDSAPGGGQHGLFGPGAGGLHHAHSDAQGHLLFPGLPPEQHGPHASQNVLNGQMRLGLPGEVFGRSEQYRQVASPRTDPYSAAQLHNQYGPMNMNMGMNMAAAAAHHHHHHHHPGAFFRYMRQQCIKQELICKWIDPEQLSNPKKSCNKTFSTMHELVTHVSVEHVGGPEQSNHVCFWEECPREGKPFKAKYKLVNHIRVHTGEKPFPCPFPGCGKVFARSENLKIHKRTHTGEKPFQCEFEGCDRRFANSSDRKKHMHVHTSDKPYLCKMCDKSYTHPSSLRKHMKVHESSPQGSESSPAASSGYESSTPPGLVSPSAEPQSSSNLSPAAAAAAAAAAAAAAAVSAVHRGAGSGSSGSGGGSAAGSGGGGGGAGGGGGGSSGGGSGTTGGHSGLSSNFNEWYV
The target of data set [2] is T1, F-HA-Zic2. Description: EMSA; even at 3-fold excess over ZBS core; Footprinting: 20 mM Tris-HCl pH 8.0, 3 mM MgCl2, 5 mM CaCl2, 100 mM NaCl, 100 mM DTT, 0.1 mM EDTA, 50 ug/ml BSA, 25 C, 30 min; EMSA conditions as in earlier work. The note with it: protein: recombinant; tags: N-terminal FLAG-HA; blunt. (In EMSA bound probe runs differently from free probe, usually more slowly.)

The target in another data set is GLI3-ZF-CH6 (GLI3 ZFD) (UniProt P10071 480-632). Description: EMSA; preferred over ZBS core; Footprinting: 20 mM Tris-HCl pH 8.0, 3 mM MgCl2, 5 mM CaCl2, 100 mM NaCl, 100 mM DTT, 0.1 mM EDTA, 50 ug/ml BSA, 25 C, 30 min; EMSA conditions as in earlier work. The settings on record: protein: recombinant; blunt.
Sequence of GLI3-ZF-CH6 (GLI3 ZFD) (P10071 480-632): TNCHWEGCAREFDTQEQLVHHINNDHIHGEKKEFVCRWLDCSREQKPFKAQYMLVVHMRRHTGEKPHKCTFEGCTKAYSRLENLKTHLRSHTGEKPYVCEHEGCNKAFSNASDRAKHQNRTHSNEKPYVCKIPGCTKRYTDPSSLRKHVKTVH
Data set [3] deals with T1, F-HA-Zic2. Description: competition; against N8; inhibits complex formation; Footprinting: 20 mM Tris-HCl pH 8.0, 3 mM MgCl2, 5 mM CaCl2, 100 mM NaCl, 100 mM DTT, 0.1 mM EDTA, 50 ug/ml BSA, 25 C, 30 min; EMSA conditions as in earlier work. The settings on record: protein: recombinant; tags: N-terminal FLAG-HA; label: none.
The target of data set [4] is T1, F-HA-Zic2. Description: competition; against N9; inhibits complex formation; Footprinting: 20 mM Tris-HCl pH 8.0, 3 mM MgCl2, 5 mM CaCl2, 100 mM NaCl, 100 mM DTT, 0.1 mM EDTA, 50 ug/ml BSA, 25 C, 30 min; EMSA conditions as in earlier work. The note with it: protein: recombinant; tags: N-terminal FLAG-HA; label: none.

B1: cp4 (-1728 to -1709) (dsDNA)
DNA 1: CCCGCACCACATGAGTCCCG
DNA 2: CGGGACTCATGTGGTGCGGG
On to B1, for which the binding result in the data set with F-HA-Zic2 [1] is “binds”.

B2: GBS probe (dsDNA)
DNA 1: CGTCTTGGGTGGTCTCCCTC
DNA 2: GAGGGAGACCACCCAAGACG
On to B2, for which the results for the binding result with F-HA-Zic2 [2] and in the data set with GLI3-ZF-CH6 (GLI3 ZFD) were “no binding” and “binds”, respectively.

B3: cp8 (-1688 to -1669) (dsDNA)
DNA 1: GTCATCCCCTGCCGGGTCCC
DNA 2: GGGACCCGGCAGGGGATGAC
B3: the binding result in the data set with F-HA-Zic2 [3] is on record as “binds”.

B4: cp11 (-1830 to -1811) (dsDNA)
DNA 1: CCCGAGTCCCCGGCGGATGT
DNA 2: ACATCCGCCGGGGACTCGGG
As to B4, the binding result in the data set with F-HA-Zic2 [4] was “binds”.
